Test results published in patent JP2000166573A.
One block for each binder: values may come before it.

Target: 抗Fasモノクローナル抗体HFE7A (mouse anti-human Fas monoclonal antibody HFE7A, from hybridoma FERM BP-5828)
Test: peptide (200 μg) preincubated with HFE7A (0.25 μg), then binding to WR19L12a cells by flow cytometry

- 結合阻害 (percent inhibition): 60%
B1: P110 (synthetic 10-residue peptide of the human Fas extracellular region) (peptide)
peptide: KCRCKPNFFC

- 結合阻害 (percent inhibition): 50%
B2: P100 (synthetic 10-residue peptide of the human Fas extracellular region) (peptide)
peptide: EINCTRTQNT
